Legend:
Experiment in all cases: AlphaScreen or HTRF; saturation binding: HEK293 cells transfected with SNAP-tagged receptor (WT or mutant) and labelled with SNAP-Lumi4-Tb, incubated with increasing concentrations of galanin-A2 in the presence or absence of 100 uM unlabeled galanin, 1 h at room temperature; HTRF ratio 665 nm/620 nm
Conditions in all cases: one partner purified
SNAP-GAL2R L172^ECL2A = target: T1, SNAP-GAL2R L172^ECL2A (human, UniProt O43603 1-387, L172^ECL2A, Lumi4-Tb on the SNAP tag)
T1 construct: also called L172A; source: HEK293, transfected, on cells; not shown: SNAP tag, N-terminal, kept
T1 sequence (looked up): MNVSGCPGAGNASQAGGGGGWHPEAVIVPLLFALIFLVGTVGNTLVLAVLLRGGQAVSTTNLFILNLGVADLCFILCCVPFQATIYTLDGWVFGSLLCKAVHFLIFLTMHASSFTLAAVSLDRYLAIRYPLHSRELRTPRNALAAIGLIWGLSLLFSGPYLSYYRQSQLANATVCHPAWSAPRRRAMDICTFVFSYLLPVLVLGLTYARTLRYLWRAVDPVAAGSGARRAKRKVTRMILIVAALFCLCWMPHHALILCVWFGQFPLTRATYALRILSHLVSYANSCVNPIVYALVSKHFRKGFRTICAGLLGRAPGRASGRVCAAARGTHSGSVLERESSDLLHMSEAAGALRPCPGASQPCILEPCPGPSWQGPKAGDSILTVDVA

SNAP-GAL2R V259^6.58A = target: T2, SNAP-GAL2R V259^6.58A (human, UniProt O43603 1-387, V259^6.58A, Lumi4-Tb on the SNAP tag)
T2 construct: also called V259A; source: HEK293, transfected, on cells; not shown: SNAP tag, N-terminal, kept
T2 sequence (looked up): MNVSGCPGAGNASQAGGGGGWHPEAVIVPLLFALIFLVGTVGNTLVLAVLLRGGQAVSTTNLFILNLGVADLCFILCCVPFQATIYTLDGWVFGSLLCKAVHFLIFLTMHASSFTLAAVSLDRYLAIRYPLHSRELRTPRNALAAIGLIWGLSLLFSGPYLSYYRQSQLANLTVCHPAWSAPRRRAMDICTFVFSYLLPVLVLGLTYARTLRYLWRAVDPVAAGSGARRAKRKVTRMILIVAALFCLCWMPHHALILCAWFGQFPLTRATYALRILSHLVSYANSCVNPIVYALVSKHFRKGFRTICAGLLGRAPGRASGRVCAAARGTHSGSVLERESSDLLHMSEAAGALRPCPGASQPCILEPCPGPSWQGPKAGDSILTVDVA

SNAP-GAL2R W249^6.48A = target: T3, SNAP-GAL2R W249^6.48A (human, UniProt O43603 1-387, W249^6.48A, Lumi4-Tb on the SNAP tag)
T3 construct: also called W249A; source: HEK293, transfected, on cells; not shown: SNAP tag, N-terminal, kept
T3 sequence (looked up): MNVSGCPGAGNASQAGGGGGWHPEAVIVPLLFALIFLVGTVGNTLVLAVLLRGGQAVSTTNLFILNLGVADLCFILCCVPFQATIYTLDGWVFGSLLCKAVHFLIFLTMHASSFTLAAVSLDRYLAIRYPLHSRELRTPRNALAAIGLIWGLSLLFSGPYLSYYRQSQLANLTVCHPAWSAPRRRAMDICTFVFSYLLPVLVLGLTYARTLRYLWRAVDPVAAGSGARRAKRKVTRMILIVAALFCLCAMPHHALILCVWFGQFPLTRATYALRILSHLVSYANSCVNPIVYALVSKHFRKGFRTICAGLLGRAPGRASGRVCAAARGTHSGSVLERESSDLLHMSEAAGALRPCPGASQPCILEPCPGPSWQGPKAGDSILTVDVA

SNAP-GAL2R L255^6.54A = target: T4, SNAP-GAL2R L255^6.54A (human, UniProt O43603 1-387, L255^6.54A, Lumi4-Tb on the SNAP tag)
T4 construct: also called L255A; source: HEK293, transfected, on cells; not shown: SNAP tag, N-terminal, kept
T4 sequence (looked up): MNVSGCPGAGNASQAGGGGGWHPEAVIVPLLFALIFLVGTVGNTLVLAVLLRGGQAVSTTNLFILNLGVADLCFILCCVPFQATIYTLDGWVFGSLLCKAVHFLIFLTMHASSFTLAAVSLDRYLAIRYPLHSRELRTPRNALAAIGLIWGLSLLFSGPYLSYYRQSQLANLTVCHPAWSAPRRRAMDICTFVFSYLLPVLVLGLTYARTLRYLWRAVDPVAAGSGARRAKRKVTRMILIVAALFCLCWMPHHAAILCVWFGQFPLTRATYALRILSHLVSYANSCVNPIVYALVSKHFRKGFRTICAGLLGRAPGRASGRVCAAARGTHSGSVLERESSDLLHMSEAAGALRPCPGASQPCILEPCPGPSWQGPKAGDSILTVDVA

B1: galanin-A2 (full-length galanin labeled with the dye A2 on an additional cysteine at the C-terminal end) (peptide)
peptide: GWTLNSAGYLLGPHAVGNHRSFSDKNGLTSC
modifications: dye A2 on the additional C-terminal cysteine
notes: numbers count on: the mature protein; additional cysteine at the C-terminal end of the peptide, carries the dye A2; source: synthetic peptide (synthesized by Vazyme, China)
- Kd (SNAP-GAL2R L172^ECL2A): 51.6 nM
- Kd (SNAP-GAL2R V259^6.58A): 180 nM
- Kd (SNAP-GAL2R W249^6.48A): 23.3 nM
- Kd (SNAP-GAL2R L255^6.54A): 55.1 nM

Reference: PMC8924211 (Nature Communications, 2022)
